# Patent US5908756
# Target: neuronal nitric oxide synthase (nNOS) expressed in transfected HEK 293 cells (rat)
# Sequence of thrombin-cleaved PIN-1 (P61273 whole entry): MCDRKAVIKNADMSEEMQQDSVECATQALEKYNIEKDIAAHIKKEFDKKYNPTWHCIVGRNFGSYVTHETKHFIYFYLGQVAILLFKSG
row,50% inhibition of NOS activity [µM],Substance
1,1,glutathione-S-transferase (GST)-PIN-1 fusion protein
2,5000,thrombin-cleaved PIN-1
